{"source": "paper PMC11381654", "about": "(2020)", "binders": {"B1": {"name": "dAb1 (VHH)", "VHH": "QVQLVESGGGLVQPGGSLRLSCAASGDFYCMAWFRQAPGKEREAVAAIRSGGRSTYYADSVKGRFTISRDNSKNTLYLQMNSLKAEDTAVYYCAVGVDGNCRNYWGQGTLVTVSS"}}, "target": "human IL‐4Rα (human, UniProt P24394 26-232, N‐glycosylation sites (modelled in the crystal structure; positions not given))", "test": "ITC", "data": [{"binder": "B1", "values": [{"measurement": "Kd", "value": 2.55, "unit": "nM"}]}]}
